The text below walks through data of patent publication US20150037304.

Test in all cases: cell_activity
In data set [1] the test system is ZFN SBS#25191 (HLA-A3) (synthetic construct). The following applies: HEK293, Surveyor assay; ZFN identity (pair 25191/25190) inferred from Table 1.
Data set [2] concerns ZFN SBS#25190 (HLA-A3) (synthetic construct). The settings on record: HEK293, Surveyor assay; ZFN identity (pair 25191/25190) inferred from Table 1.
In data set [3] the test system is ZFN SBS#18889 (ZFN-L, HLA-A2) (synthetic construct). The settings on record: pair with 18881, EL/KK FokI, primary T cells, 2.5 ug each mRNA; 19% at 37C and up to 57% with 30C cold shock without EL/KK; Table 2 prints AGG where listing ….
In data set [4] the test system is ZFN SBS#18881 (ZFN-R, HLA-A2) (synthetic construct). The settings on record: pair with 18889, EL/KK FokI, primary T cells, 2.5 ug each mRNA; 19% at 37C and up to 57% with 30C cold shock without EL/KK.

As for “ATGGAGCCGCGGGCGCCGTGGATAGAGC (double strand) [HLA-A3 target site of 25191]”, the activity (% modified HLA-A3 alleles) in data set [1] stood at 10. As for “CTGGCTCGCGGCGTCGCTGTCGAACCGC (double strand) [HLA-A3 target site of 25190]”, the activity (% modified HLA-A3 alleles) in data set [2] was 10.

In data set [3], “GTATGGCTGCGACGTGGGGTCGGACGGG (double strand) [HLA-A2 target site of 18889]” showed an activity (% HLA-A2 negative cells) of 52. “TTATCTGGATGGTGTGAGAACCTGGCCC (double strand) [HLA-A2 target site of 18881]” displayed an activity (% HLA-A2 negative cells) in data set [4] of 52.
